Source: article doi:10.1101/2020.12.18.423415 (bioRxiv, 2020)

Biological target: receptor binding domain (RBD) of the SARS-CoV-2 S protein (SARS-CoV-2, UniProt P0DTC2)
Assay: ELISA

B1: recombinant fragment of human surfactant protein D (rfhSP-D) (domain or fragment)
chain: PGLKGDKGIPGDKGAKGESGLPDVASLRQQVEALQGQVQHLQAAFSQYKKVELFPNGQSVGEKIFKTAGFVKPFTEAQLLCTQAGGQLASPRSAAENAALQQLVVAKNEAAFLSMTDSKTEGKFTYPTGESLVYSNWAPGEPNDDGGSEDCVEIFTNGKWNDRACGEKRLVVCEF
  percent decrease of RBD-hACE-2 interaction (rfhSP-D increased 8-fold): ~25%
